From patent US20200123252A1 (LAMKAP BIO BETA, published 2020)

How the values were obtained:
[1] = target: T1, human CEACAM5 on MKN-45 cells (human, UniProt P06731 35-685); assay: flow cytometry on MKN45 CEA+ cells (carry CEACAM5 and CD47)
T1 construct: Endogenous CEACAM5 on MKN-45 gastric adenocarcinoma cells, which also carry CD47 (and CEACAM6); also called CD66e; MKN45 CEA+ cancer cells
T1 sequence: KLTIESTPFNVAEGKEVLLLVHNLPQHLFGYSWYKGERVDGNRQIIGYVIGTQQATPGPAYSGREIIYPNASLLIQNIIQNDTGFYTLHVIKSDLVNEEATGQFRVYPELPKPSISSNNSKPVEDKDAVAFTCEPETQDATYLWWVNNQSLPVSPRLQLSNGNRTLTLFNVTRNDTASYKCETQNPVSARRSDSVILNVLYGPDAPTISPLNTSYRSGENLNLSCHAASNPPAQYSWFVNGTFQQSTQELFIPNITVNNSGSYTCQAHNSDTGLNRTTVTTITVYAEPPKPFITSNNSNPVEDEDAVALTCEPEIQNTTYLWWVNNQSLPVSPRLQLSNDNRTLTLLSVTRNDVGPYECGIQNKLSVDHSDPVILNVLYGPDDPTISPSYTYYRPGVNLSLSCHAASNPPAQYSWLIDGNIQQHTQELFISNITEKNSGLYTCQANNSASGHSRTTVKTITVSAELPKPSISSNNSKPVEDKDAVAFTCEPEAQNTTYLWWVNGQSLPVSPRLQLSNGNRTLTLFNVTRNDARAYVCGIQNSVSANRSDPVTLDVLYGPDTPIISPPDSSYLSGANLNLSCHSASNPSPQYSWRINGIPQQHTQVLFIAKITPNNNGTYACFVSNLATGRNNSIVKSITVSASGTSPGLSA

[2] = target: T2, human CD47 on MKN45 cells (human, UniProt Q08722 19-323); assay: inhibition of SIRPα-mouseFc binding to CD47 on MKN45 cells, imaging (CX5)
T2 construct: whole, on cells; also called IAP
Excerpt: The detection of bound SIRPα cell-based assay monitoring the interaction of soluble SIRPα with human CD47 expressed at the surface of MKN45 is used for the detection of the blocking activity. Dose-response experiments with bispecific antibodies according to the invention allow determination of an IC50 value.
MKN45 cancer cells, expressing both CD47 and CEACAM5, are stained with CFSE violet to allow the imaging system (CX5) to detect the cells. Briefly, 3,000 stained MKN45 cells per well are seeded in a 384 optical well plate (Costar) and incubated for 50 minutes with increased concentrations of bispecific antibodies of the invention (1.9 pM to 333 nM, in quadruplicates). Then, a fixe concentration of SIRPα-mouseFc premixed with anti-mouse IgG-Fc AF647 coupled antibody (Jackson Immunoresearch diluted 1:2000) is added at 50 ng/mL final. After an incubation of 3H30 plates are acquired with the imaging system (CX5, Thermofisher) and fluorescence signals emitted by the detected bound SIRPα is recorded by the software dedicated to the imaging system. Fluorescence signals are plotted according to the dose range tested and IC50 are calculated by the software (Prism, Graphpad).

[3] = target: T1, human CEACAM5 on MKN-45 cells; assay: flow cytometry on MKN45 CEA+ cells (carry CEACAM5 and CD47); MKN45 CEA+ cancer cells
[4] = target: T1, human CEACAM5 on MKN-45 cells; assay: binding to MKN-45 cells (MFI), in the presence of 200 ng/mL shed CEA
[5] = target: T1, human CEACAM5 on MKN-45 cells; assay: binding to MKN-45 cells (MFI), without shed CEA
[6] = target: T3, shed CEA (soluble CEA) (human, UniProt P06731 35-685, limits assumed); assay: cell-based or functional assay
T3 sequence (looked up): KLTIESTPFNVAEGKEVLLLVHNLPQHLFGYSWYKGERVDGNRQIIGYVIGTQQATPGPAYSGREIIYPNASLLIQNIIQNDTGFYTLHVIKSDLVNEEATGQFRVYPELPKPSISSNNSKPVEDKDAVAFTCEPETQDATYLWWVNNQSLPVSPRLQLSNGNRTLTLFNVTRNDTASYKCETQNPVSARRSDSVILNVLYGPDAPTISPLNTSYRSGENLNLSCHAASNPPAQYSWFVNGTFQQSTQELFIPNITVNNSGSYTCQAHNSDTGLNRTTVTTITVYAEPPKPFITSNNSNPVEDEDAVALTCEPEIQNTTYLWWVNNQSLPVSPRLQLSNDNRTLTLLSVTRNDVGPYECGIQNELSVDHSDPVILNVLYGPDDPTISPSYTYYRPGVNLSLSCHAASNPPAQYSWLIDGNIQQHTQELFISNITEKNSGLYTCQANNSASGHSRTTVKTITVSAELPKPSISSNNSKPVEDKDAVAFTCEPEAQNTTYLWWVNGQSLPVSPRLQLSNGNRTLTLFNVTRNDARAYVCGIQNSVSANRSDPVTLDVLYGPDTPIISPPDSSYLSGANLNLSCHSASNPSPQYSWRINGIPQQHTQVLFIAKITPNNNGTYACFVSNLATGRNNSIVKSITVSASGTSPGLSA

[7] = target: T4, human CEACAM6 (human, UniProt P40199 35-320); assay: ELISA on biotinylated recombinant human CEACAM6 captured on streptavidin, bivalent mAb
T4 construct: also called CD66c; biotinylated recombinant human CEACAM6
T4 sequence (looked up): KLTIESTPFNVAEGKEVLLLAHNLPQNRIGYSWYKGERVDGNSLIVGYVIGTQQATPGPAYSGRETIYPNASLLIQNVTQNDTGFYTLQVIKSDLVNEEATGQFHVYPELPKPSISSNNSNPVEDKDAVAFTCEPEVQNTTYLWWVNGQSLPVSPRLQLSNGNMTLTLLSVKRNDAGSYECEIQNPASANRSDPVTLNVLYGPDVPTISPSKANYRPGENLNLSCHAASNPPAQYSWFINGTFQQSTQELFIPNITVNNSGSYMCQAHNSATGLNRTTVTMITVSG
Description: Biotinylated recombinant human CEACAM5 or CEACAM6 proteins are captured at 0.5 μg/mL in a streptavidin coated 96-well microplate. The plate is washed and monoclonal anti-CEA bivalent antibodies of the present invention are added as a broad concentration-range (e.g. from […] to 1 μg/mL) and incubated during 1 hr. The plate is washed and bound antibodies are detected with an anti-human IgG(Fc)-HRP (Jackson ImmunoResearch). […] The fluorescence signal is measured on a Synergy HT plate reader (Biotek).

[8] = target: T1, human CEACAM5 on MKN-45 cells; assay: FACS binding to MKN-45 cells, which express CD47, CEACAM5 and CEACAM6; K2AC39 is cross-reactive to CEACAM6

B1: K2AC13 CEA×CD47 bispecific antibody (bispecific antibody, human IgG1, kappa, lambda)
heavy: not shown
light 1: QSALTQPASVSGSPGQSITISCTGTSSNVRYAAGVSWYQQHPGKAPKLMIYEVSNRPSGVSNRFSGSKSGNTASLTISGLQAEDEADYYCSSWDFEHGPAAKVFGGGTKLTVLGQPKAAPSVTLFPPSSEELQANKATLVCLISDFYPGAVTVAWKADSSPVKAGVETTTPSKQSNNKYAASSYLSLTPEQWKSHRSYSCQVTHEGSTVEKTVAPTECS
light 2: not shown
notes: κλ body, human IgG1, common heavy chain; CEACAM5 arm light chain 2B8 (AC13)
EC50 [1]: 190 nM | IC50 [2]: 4 nM

B2: K2AC28 CEA×CD47 bispecific antibody (bispecific antibody, human IgG1, kappa, lambda)
heavy: not shown
light 1: NFMLTQPHSVSESPGKTVTISCTRSSGSINDITVHWYQQRPGSSPTTVIYGYNARPSGVPDRFSGSIDSSSNSASLTISGLKTEDEADYYCQSWDGHGSAYVFGGGTKLTVLGQPKAAPSVTLFPPSSEELQANKATLVCLISDFYPGAVTVAWKADSSPVKAGVETTTPSKQSNNKYAASSYLSLTPEQWKSHRSYSCQVTHEGSTVEKTVAPTECS
light 2: not shown
notes: κλ body, human IgG1, common heavy chain; CEACAM5 arm light chain C11 (AC28)
EC50 [1]: 52.5 nM | IC50 [2]: 0.95 nM

B3: K2AC26 CEA×CD47 bispecific antibody (bispecific antibody, human IgG1, kappa, lambda)
heavy: not shown
light 1: QSALTQPASVSGSPGQSITISCTGTSSDVKYANAVSWYQQHPGKAPKLMIYSNSIRPSGVSNRFSGSKSGNTASLTISGLQAEDEADYYCSSYDPRGNLLIRVFGGGTKLTVLGQPKAAPSVTLFPPSSEELQANKATLVCLISDFYPGAVTVAWKADSSPVKAGVETTTPSKQSNNKYAASSYLSLTPEQWKSHRSYSCQVTHEGSTVEKTVAPTECS
light 2: not shown
notes: κλ body, human IgG1, common heavy chain; CEACAM5 arm light chain 2F7 (AC26)
EC50 [1]: 12.7 nM | IC50 [2]: 0.32 nM

B4: K2AC29 CEA×CD47 bispecific antibody (bispecific antibody, human IgG1, kappa, lambda)
heavy: not shown
light 1: QSALTQPASVSGSPGQSITISCTGTSSDVEFTNGVSWYQQHPGKAPKLMIYGFSSRPSGVSNRFSGSKSGNTASLTISGLQAEDEADYYCSSYDPPWHLLARVFGGGTKLTVLGQPKAAPSVTLFPPSSEELQANKATLVCLISDFYPGAVTVAWKADSSPVKAGVETTTPSKQSNNKYAASSYLSLTPEQWKSHRSYSCQVTHEGSTVEKTVAPTECS
light 2: not shown
notes: κλ body, human IgG1, common heavy chain; CEACAM5 arm light chain 2B5 (AC29)
EC50 [1]: 14.5 nM | IC50 [2]: 0.72 nM

B5: K2AC18 CEA×CD47 bispecific antibody (bispecific antibody, human IgG1, kappa, lambda)
heavy: not shown
light 1: SYVLTQPPSVSVAPGKTARITCGGNGIGDASVHWYQQKPGQAPVLVIYSTTTRPSGIPERFSGSNSGNTATLTISRVEAGDEADYYCQVWDGFGPRHRAVFGGGTKLTVLGQPKAAPSVTLFPPSSEELQANKATLVCLISDFYPGAVTVAWKADSSPVKAGVETTTPSKQSNNKYAASSYLSLTPEQWKSHRSYSCQVTHEGSTVEKTVAPTECS
light 2: not shown
notes: κλ body, human IgG1, common heavy chain; CEACAM5 arm light chain 1A2 (AC18)
EC50 [1]: 132 nM | IC50 [2]: 7 nM

B6: K2AC5 CEA×CD47 bispecific antibody (bispecific antibody, human IgG1, kappa, lambda)
heavy: not shown
light 1: QSVLTQPPSVSAAPGQKVTISCSGSSSNIGYGLVSWYQQLPGTAPKLLIYAGNLRPSGIPDRFSGSKSGTSATLGITGLQTGDEADYYCGTWDFNYGVVFGGGTKLTVLGQPKAAPSVTLFPPSSEELQANKATLVCLISDFYPGAVTVAWKADSSPVKAGVETTTPSKQSNNKYAASSYLSLTPEQWKSHRSYSCQVTHEGSTVEKTVAPTECS
light 2: not shown
notes: κλ body, human IgG1, common heavy chain; CEACAM5 arm light chain 1D9 (AC5) with lambda constant domain, CD47 arm kappa light chain KA3 (K2); also called CD47×CEA bispecific antibody K2AC5
EC50 [3]: 11.3 nM | EC50 (read off the curve) [4]: ~0.3 mg/L | EC50 (read off the curve) [5]: ~0.3 mg/L | shift of EC50 of the phagocytosis index curve of MKN-45 cells by 200 ng/mL shed CEA [6]: < 4 fold | IC50 [2]: 0.4 nM

B7: K2AC10 CEA×CD47 bispecific antibody (bispecific antibody, human IgG1, kappa, lambda)
heavy: not shown
light 1: QSVLTQPPSVSGAPGQRVTISCTGSSSNIYANSNVHWYQQLPGTAPKLLIYSGSNRPSGVPDRFSGSKSGTSASLAITGLQAEDEADYYCQSYDPAHNLLTAVFGGGTKLTVLGQPKAAPSVTLFPPSSEELQANKATLVCLISDFYPGAVTVAWKADSSPVKAGVETTTPSKQSNNKYAASSYLSLTPEQWKSHRSYSCQVTHEGSTVEKTVAPTECS
light 2: not shown
notes: κλ body, human IgG1, common heavy chain; CEACAM5 arm light chain 1D5 (AC10)
EC50 [1]: 1.15 nM | IC50 [2]: 0.22 nM

B8: AC22 anti-CEA bivalent monoclonal antibody (antibody, human IgG1, lambda, V domains shown)
VH: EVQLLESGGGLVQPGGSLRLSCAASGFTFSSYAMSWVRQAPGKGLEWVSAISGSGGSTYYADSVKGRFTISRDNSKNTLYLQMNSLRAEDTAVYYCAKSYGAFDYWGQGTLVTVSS
VL: QSVLTQPPSVSAAPGQKVTISCSGSSSNIANGIVSWYQQLPGTAPKLLIYFDNLRPSGIPDRFSGSKSGTSATLGITGLQTGDEADYYCGTWDFSYGIVFGGGTKLTVLG
notes: also called 1G6; anti-CEA bivalent mAb of K2AC22
binding result [7]: no binding

B9: K2AC25 CEA×CD47 bispecific antibody (bispecific antibody, human IgG1, kappa, lambda)
heavy: not shown
light 1: QSVLTQPPSVSAAPGQKVTISCSGSSSNIGITPVSWYQQLPGTAPKLLIYSNNFRPSGIPDRFSGSKSGTSATLGITGLQTGDEADYYCGTWDRTGHEIRPVFGGGTKLTVLGQPKAAPSVTLFPPSSEELQANKATLVCLISDFYPGAVTVAWKADSSPVKAGVETTTPSKQSNNKYAASSYLSLTPEQWKSHRSYSCQVTHEGSTVEKTVAPTECS
light 2: not shown
notes: κλ body, human IgG1, common heavy chain; CEACAM5 arm light chain 2F4 (AC25)
EC50 [1]: 13 nM | IC50 [2]: 0.22 nM

B10: K2AC27 CEA×CD47 bispecific antibody (bispecific antibody, human IgG1, kappa, lambda)
heavy: not shown
light 1: QSVLTQPPSVSGAPGQRVTISCTGSSSNIGYADKVHWYQQLPGTAPKLLIYNNSDRPSGVPDRFSGSKSGTSASLAITGLQAEDEADYYCQSYDGYNMLTAVFGGGTKLTVLGQPKAAPSVTLFPPSSEELQANKATLVCLISDFYPGAVTVAWKADSSPVKAGVETTTPSKQSNNKYAASSYLSLTPEQWKSHRSYSCQVTHEGSTVEKTVAPTECS
light 2: not shown
notes: κλ body, human IgG1, common heavy chain; CEACAM5 arm light chain 2C11 (AC27)
EC50 [1]: 12.5 nM | IC50 [2]: 0.86 nM

B11: K2AC39 CD47×CEA bispecific antibody (bispecific antibody, human IgG1, kappa, lambda)
heavy: not shown
light 1: QSVLTQPPSVSAAPGQKVTISCSGSSSEITASGVSWYQQLPGTAPKLLIYDNNKRPSGIPDRFSGSKSGTSATLGITGLQTGDEADYYCGTWDFPPSRFVFGGGTKLTVLGQPKAAPSVTLFPPSSEELQANKATLVCLISDFYPGAVTVAWKADSSPVKAGVETTTPSKQSNNKYAASSYLSLTPEQWKSHRSYSCQVTHEGSTVEKTVAPTECS
light 2: not shown
notes: κλ body with common heavy chain; CEACAM5/CEACAM6 arm light chain 1B2 (AC39)
EC50 (read off the curve) [8]: ~3 mg/L
